According to patent US10702592B2, “Peptides and combination of peptides for use in immunotherapy against NHL and other cancers” (Immatics Biotechnologies GmbH, priority 2016, dated 2020):

biological target: HLA-A*02:01 (Homo sapiens, UniProt P04439, D140Y/D185E/D98H/E176V/E277Q/G131W/G231S/I119V/I121R/I166T/I218V/L300P/L318F/N151K/N90K/P208A/P217A/Q86G/Q94H/R138H/R169H/T345S); assay: MHC binding assay (UV-ligand exchange, beta2m ELISA); conditions: binding to HLA-A*02:01, UV-ligand exchange
Excerpt: Candidate peptides for T cell based therapies according to the present invention were further tested for their MHC binding capacity (affinity). The individual peptide-MHC complexes were produced by UV-ligand exchange, where a UV-sensitive peptide is cleaved upon UV-irradiation, and exchanged with the peptide of interest as analyzed. Only peptide candidates that can effectively bind and stabilize the peptide-receptive MHC molecules prevent dissociation of the MHC complexes. To determine the yield of the exchange reaction, an ELISA was performed based on the detection of the light chain (β2m) of stabilized MHC complexes. The assay was performed as generally described in Rodenko et al. (Rodenko et al., 2006).
96 well MAXISorp plates (NUNC) were coated over night with 2 ug/ml streptavidin in PBS at room temperature, washed 4× and blocked for 1 h at 37° C. in 2% BSA containing blocking buffer. Refolded HLA-A*02:01/MLA-001 monomers served as standards, covering the range of 15-500 ng/ml. Peptide-MHC monomers of the UV-exchange reaction were diluted 100 fold in blocking buffer. Samples were incubated for 1 h at 37° C., washed four times, incubated with 2 ug/ml HRP conjugated anti-β2m for 1 h at 37° C., washed again and detected with TMB solution that is stopped with […]. Absorption was measured at 450 nm. Candidate peptides that show a high exchange yield (preferably higher than 50%, most preferred higher than 75%) are generally preferred for a generation and production of antibodies or fragments thereof, and/or T cell receptors or fragments thereof, as they show sufficient avidity to the MHC molecules and prevent dissociation of the MHC complexes.

Substance	Peptide exchange (MHC class I binding score, peptide exchange yield)
160 (LLPPPSPAA; listed as Homo sapiens) [compound 160]	“+++” (≥50 = +++)
161 (NLMLELETV; listed as Homo sapiens) [compound 161]	“+++” (≥50 = +++)
162 (RLADLKVSI; listed as Homo sapiens) [compound 162]	“++++” (≥75% = ++++)
163 (SIFDAVLKGV; listed as Homo sapiens) [compound 163]	“++++” (≥75% = ++++)
164 (SLFDGAVISTV; listed as Homo sapiens) [compound 164]	“+++” (≥50 = +++)
165 (KLLEEIEFL; listed as Homo sapiens) [compound 165]	“+++” (≥50 = +++)
167 (SLFSITKSV; listed as Homo sapiens) [compound 167]	“+++” (≥50 = +++)
168 (SLLSPLLSV; listed as Homo sapiens) [compound 168]	“+++” (≥50 = +++)
169 (SSLEENLLHQV; listed as Homo sapiens) [compound 169]	“+++” (≥50 = +++)
171 (TLLDVISAL; listed as Homo sapiens) [compound 171]	“++++” (≥75% = ++++)
172 (TLQDSLEFI; listed as Homo sapiens) [compound 172]	“++++” (≥75% = ++++)
173 (VILDSVASV; listed as Homo sapiens) [compound 173]	“++++” (≥75% = ++++)
174 (VLVEITDVDFAA; listed as Homo sapiens) [compound 174]	“++++” (≥75% = ++++)
175 (VMESILLRL; listed as Homo sapiens) [compound 175]	“+++” (≥50 = +++)
176 (YLHIYESQL; listed as Homo sapiens) [compound 176]	“+++” (≥50 = +++)
177 (YLYEAEEATTL; listed as Homo sapiens) [compound 177]	“+++” (≥50 = +++)
178 (YVLQGEFFL; listed as Homo sapiens) [compound 178]	“+++” (≥50 = +++)
179 (FVDTNLYFL; listed as Homo sapiens) [compound 179]	“+++” (≥50 = +++)
180 (GILQLVESV; listed as Homo sapiens) [compound 180]	“+++” (≥50 = +++)

Substance	Peptide exchange (MHC class I binding score, peptide exchange yield)
181 (LLFDQNDKV; listed as Homo sapiens) [compound 181]	“+++” (≥50 = +++)
182 (LLPPPPPVA; listed as Homo sapiens) [compound 182]	“++++” (≥75% = ++++)
183 (VLFETVLTI; listed as Homo sapiens) [compound 183]	“+++” (≥50 = +++)
184 (AVLGTSWQL; listed as Homo sapiens) [compound 184]	“+++” (≥50 = +++)
185 (FIAQLNNVEL; listed as Homo sapiens) [compound 185]	“+” (≥10% = +)
186 (FLDVSRDFV; listed as Homo sapiens) [compound 186]	“+++” (≥50 = +++)
187 (FLNSFVFKM; listed as Homo sapiens) [compound 187]	“++” (≥20% = ++)
188 (GLEDEMYEV; listed as Homo sapiens) [compound 188]	“++” (≥20% = ++)
189 (SLSHLVPAL; listed as Homo sapiens) [compound 189]	“+++” (≥50 = +++)
190 (GLIELVDQL; listed as Homo sapiens) [compound 190]	“+++” (≥50 = +++)
191 (GLSDISAQV; listed as Homo sapiens) [compound 191]	“+++” (≥50 = +++)
192 (GMAAEVPKV; listed as Homo sapiens) [compound 192]	“++” (≥20% = ++)
193 (SLADSMPSL; listed as Homo sapiens) [compound 193]	“++” (≥20% = ++)
194 (SLAPFDREPFTL; listed as Homo sapiens) [compound 194]	“++” (≥20% = ++)
195 (ALIPDLNQI; listed as Homo sapiens) [compound 195]	“+++” (≥50 = +++)
197 (YLLTDNVVKL; listed as Homo sapiens) [compound 197]	“++” (≥20% = ++)
198 (GLLSAVSSV; listed as Homo sapiens) [compound 198]	“+++” (≥50 = +++)
199 (SLNSTTWKV; listed as Homo sapiens) [compound 199]	“+++” (≥50 = +++)
200 (YLLDFEDRL; listed as Homo sapiens) [compound 200]	“++++” (≥75% = ++++)

Substance	Peptide exchange (MHC class I binding score, peptide exchange yield)
201 (YLNISQVNV; listed as Homo sapiens) [compound 201]	“+++” (≥50 = +++)
202 (ALAAGGYDV; listed as Homo sapiens) [compound 202]	“++” (≥20% = ++)
203 (ILDTIFHKV; listed as Homo sapiens) [compound 203]	“+++” (≥50 = +++)
204 (RLCDIVVNV; listed as Homo sapiens) [compound 204]	“++” (≥20% = ++)
205 (TLFYESPHL; listed as Homo sapiens) [compound 205]	“+++” (≥50 = +++)
206 (SAVSGQWEV; listed as Homo sapiens) [compound 206]	“++” (≥20% = ++)
207 (GLVGLLEQA; listed as Homo sapiens) [compound 207]	“++++” (≥75% = ++++)
208 (FLAVSLPLL; listed as Homo sapiens) [compound 208]	“+++” (≥50 = +++)
209 (FLLDTISGL; listed as Homo sapiens) [compound 209]	“+++” (≥50 = +++)
210 (FLAEQFEFL; listed as Homo sapiens) [compound 210]	“+++” (≥50 = +++)
211 (FIDDLFAFV; listed as Homo sapiens) [compound 211]	“+++” (≥50 = +++)
212 (FLIGQGAHV; listed as Homo sapiens) [compound 212]	“+++” (≥50 = +++)
213 (YINEDEYEV; listed as Homo sapiens) [compound 213]	“++” (≥20% = ++)
214 (FLFDGSMSL; listed as Homo sapiens) [compound 214]	“+++” (≥50 = +++)
215 (QLFEEEIEL; listed as Homo sapiens) [compound 215]	“++” (≥20% = ++)
216 (KVVSNLPAI; listed as Homo sapiens) [compound 216]	“++” (≥20% = ++)
217 (AQFGAVLEV; listed as Homo sapiens) [compound 217]	“+++” (≥50 = +++)
218 (ALDQFLEGI; listed as Homo sapiens) [compound 218]	“+++” (≥50 = +++)
